From patent US20040202655A1

What was measured:
[1] = target: IGF1R extracellular domain (human) (UniProt P08069); experiment: SPR (BIAcore), IgG captured on protein A, IGF1R extracellular domain in flow
[2] = target: IGF1R extracellular domain (human) (UniProt P08069); experiment: SPR (BIAcore), IgG captured on mouse anti-human IgG, IGF1R extracellular domain in flow

Binder | Kd [1] | Kd [2]
PINT-8A1 IgG (antibody, V domains shown) VH: EVQLVQSGAEVKKPGESLTISCKGPGYNFFNYWIGWVRQMPGKGLEWMGIIYPTDSDTRYSPSFQGQVTISVDKSISTAYLQWSSLKASDTAMYYCARSIRYCPGGRCYSGYYGMDVWGQGTMVTVSS VL: SELTQDPAVSVALGQTVRITCQGDSLRSYYASWYQQKPGQAPVLVIYGKNNRPSGIPDRFSGSSSGNTASLTITGAQAEDEADYYCNSRDSSGNHVVFGGGTKLTVLG | 0.109 nM | 0.503 nM
PINT-9A2 IgG (antibody, V domains shown) VH: QVQLVQSGAEVRKPGASVKVSCKTSGYTFRNYDINWVRQAPGQGLEWMGRISGHYGNTDHAQKFQGRFTMTKDTSTSTAYMELRSLTFDDTAVYYCARSQWNVDYWGRGTLVTVSS VL: LNFMLTQPHSVSESPGKTVTISCTRSSGSIASNYVQWYQQRPGSSPTTVIFEDNRRPSGVPDRFSGSIDTSSNSASLTISGLKTEDEADYYCQSFDSTNLVVFGGGTKVTVLG | 0.24 nM | 0.138 nM
